Results from patent US20180104303A1 (UNIVERSITE DE LA ROCHELLE, published 2018).

Key:
Assay in all cases: cell-based or functional assay
[1] = target: T1, recombinant alpha-glucosidase from Saccharomyces cerevisiae, which is a maltase (Saccharomyces cerevisiae)
[2] = target: T1, recombinant alpha-glucosidase from …; remark: listed apart in the source
[3] = target: T1, recombinant alpha-glucosidase from …; remark: listed apart in the source
DPP-IV from pig kidney = DPP-IV from pig kidney (pig, UniProt P22411 38-766, limits assumed)
Chain of DPP-IV from pig kidney (P22411 38-766 limits assumed): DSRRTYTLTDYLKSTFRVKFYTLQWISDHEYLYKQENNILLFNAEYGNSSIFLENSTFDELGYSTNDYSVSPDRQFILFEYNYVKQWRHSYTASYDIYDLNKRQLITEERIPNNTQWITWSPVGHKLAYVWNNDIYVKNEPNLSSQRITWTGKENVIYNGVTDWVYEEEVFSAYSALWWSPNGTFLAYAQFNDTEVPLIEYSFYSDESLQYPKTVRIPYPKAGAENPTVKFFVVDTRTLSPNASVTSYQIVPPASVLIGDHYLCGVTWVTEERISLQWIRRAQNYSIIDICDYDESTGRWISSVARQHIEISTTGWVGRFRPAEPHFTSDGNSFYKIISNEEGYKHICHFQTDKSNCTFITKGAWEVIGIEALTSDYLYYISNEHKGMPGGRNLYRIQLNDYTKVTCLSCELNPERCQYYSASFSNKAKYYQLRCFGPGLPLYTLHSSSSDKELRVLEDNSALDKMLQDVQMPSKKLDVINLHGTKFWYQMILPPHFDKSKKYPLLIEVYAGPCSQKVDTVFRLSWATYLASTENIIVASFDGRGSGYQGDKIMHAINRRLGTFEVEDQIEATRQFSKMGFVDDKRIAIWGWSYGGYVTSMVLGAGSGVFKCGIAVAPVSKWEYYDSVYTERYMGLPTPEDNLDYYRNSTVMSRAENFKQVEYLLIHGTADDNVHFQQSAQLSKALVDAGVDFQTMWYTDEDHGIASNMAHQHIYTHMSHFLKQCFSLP

Inhibitory activity on α-glucosidase (IC50) in mg/ml [1] [mg/mL] | Inhibitory activity on α-glucosidase (IC50) in mmol/l [1] [mmol/L] | IC50 ratio against the AP and VAP peptides [2] [fold] | Inhibitory activity on α-glucosidase (IC50) [3] [mM] | (IC50) in mmol/l, inhibition of DPP-IV (DPP-IV from pig kidney) [mmol/L] | IC50 (inhibition of the activity of α-glucosidase in vitro) [2] [mM] | IC50 ratio against acarbose [2] [fold] | Binder
2.53 | 7.11 | ~355 | 7.11 | – | – | – | LKP [LKP peptide]
0.756 | 2.7 | ~135 | 2.7 | – | – | – | VY [VY peptide]
1.42 | 1.76 | – | – | 1.06 | – | – | SAPLRVY [SAPLRVY (SEQ ID NO: 3)]
3.39 | 11 | – | 11 | – | – | – | KY [KY peptide]
1.39 | 4.05 | – | – | 2.27 | – | – | VAPG [VAPG (SEQ ID NO: 6)]
3.6 | 12.3 | – | 12.3 | – | – | – | IY [IY peptide]
4.24 | 12.8 | – | 12.8 | – | – | – | KW [KW peptide]
2.03 | 2.68 | – | – | 1.18 | – | – | VAPFPEV [VAPFPEV (SEQ ID NO: 4)]

The next lines start with the binder.

Binder | Inhibitory activity on α-glucosidase (IC50) in mg/ml [1] [mg/mL] | Inhibitory activity on α-glucosidase (IC50) in mmol/l [1] [mmol/L] | IC50 ratio against the AP and VAP peptides [2] [fold] | Inhibitory activity on α-glucosidase (IC50) [3] [mM] | (IC50) in mmol/l, inhibition of DPP-IV (DPP-IV from pig kidney) [mmol/L] | IC50 (inhibition of the activity of α-glucosidase in vitro) [2] [mM] | IC50 ratio against acarbose [2] [fold]
AVPYQR [AVPYQR (SEQ ID NO: 5)] | 2.34 | 3.19 | – | – | 5.7 | – | –
VAP [VAP peptide] | 0.0057 | 0.02 | – | 0.02 | 4.82 | 0.02 | ~595
GPL [GPL peptide] | 1.37 | 4.82 | ~243 | 4.82 | 1.85 | – | –
IPI [Diprotin A (IPI)] | – | – | – | – | 0.0121 | – | –
VGVAPG [VGVAPG (SEQ ID NO: 7)] | 2.29 | 4.59 | – | – | 10.7 | – | –
AP [AP peptide] | 0.0025 | 0.0136 | – | 0.0136 | 4.78 | 0.0136 | ~874
